This test addresses T1, Kv1.3 (human potassium voltage-gated channel subfamily A member 3) (human, UniProt P22001 1-575).
T1 construct: whole, on cells
As to the kind of experiment: immunofluorescence staining of Kv1.3 expressing HEK293F cells, flow cytometry. Background: Flow cytometry measures light scatter and fluorescence of single cells or particles in a stream.

No end group written: not given here.

T1 sequence (P22001 whole entry): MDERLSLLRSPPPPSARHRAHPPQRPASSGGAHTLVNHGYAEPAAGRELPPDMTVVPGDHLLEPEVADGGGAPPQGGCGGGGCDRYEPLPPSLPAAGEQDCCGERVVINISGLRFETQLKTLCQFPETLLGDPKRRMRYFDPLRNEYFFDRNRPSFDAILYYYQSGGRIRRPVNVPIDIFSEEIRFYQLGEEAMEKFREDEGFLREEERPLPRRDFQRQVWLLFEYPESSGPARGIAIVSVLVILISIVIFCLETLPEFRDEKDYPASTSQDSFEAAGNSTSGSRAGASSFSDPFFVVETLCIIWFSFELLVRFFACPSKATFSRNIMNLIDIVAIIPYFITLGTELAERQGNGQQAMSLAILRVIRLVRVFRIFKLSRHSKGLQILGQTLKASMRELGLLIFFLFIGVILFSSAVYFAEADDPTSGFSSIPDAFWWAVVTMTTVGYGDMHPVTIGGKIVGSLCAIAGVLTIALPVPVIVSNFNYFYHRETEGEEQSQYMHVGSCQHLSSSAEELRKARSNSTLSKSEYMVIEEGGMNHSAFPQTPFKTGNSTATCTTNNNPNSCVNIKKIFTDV

B1: CllTx1-Fc fusion protein (Fc fusion)
chain: ITINVKCTSPQQCLRPCKDRFGQHAGGKCINGKCKCYP
modifications: ends and bridges not checked; also: fused to human IgG1 Fc fragment, limits and linker not given here
notes: mature; also called recombinant CllTx1-Fc fusion protein; not shown: human IgG1 Fc fragment
As for B1, the binding result is reported as “binds”.
